These results are taken from the domain aggregation screens of Martell et al. (2025).

The data set in a line: soluble fraction after stress (log2 fold change); higher = more stays soluble; pooled small domains, quantitative proteomics. Particulars: stress: pH 4. In short, it runs like this: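 Aggregation propensity is estimated from the fold change in each domain's soluble amount after acid stress. Pooled small-domain libraries were stressed at pH 4, and higher log2 values mean more stayed soluble.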
Take “HMNKKLEMKIEQLDLSVRLFNSLKRSGIYTVAQIIKLTEEDVMRFRSLGRKSFKELKEKLSEHGLEFE”: the “soluble fraction (log2)” value is -1.02. On to “HMNKLKALREEQGLSMMEIAKQLNMPYTTYVNYEKGTREPNSEMLIKFSKFFNVTIDYLIGNSEQKN”, for which the “soluble fraction (log2)” value is -0.129. “HMNKNLQLMINEIKKGLASEDIETRKKSVLMLSRIDAPEIIQVLEPLKDDSSEEIRKISSKIISVLSKKYT”: the “soluble fraction (log2)” value was determined as 0.332. In the case of “HMNKNQGVTTTNLNFRKSASTSSLVLYTIPKNTTLDILDKLPSGWYKVKYKGLTGYVSGSYV” it was 0.22; in that of “HMNKPTFNIFNNRLTFPFKGDITIYSLDGKRVFSAYNESSVNLSFLNRGSYISEFNNSRSVLIL”, -0.948; in that of “HMNKRKQRINDLMDLIREQPALSIKNLAEMLNVSEMTIRRDMAYLKSNNLLNRAHGMNFLNS”, 0.132.

Consider “HMNKSEFLNELEKRIRVLEKNEIKDILAEYSQHIDMRMGSGLSEAEAIKDFGDMDDLAAEILEAY”, for which the “soluble fraction (log2)” value was -0.436. “HMNKVDEEKNAELVSTIQNKFSDVSAATKKKVKAFMAEHDIPNFKNADEIPTANLEAIVAMLNED”: the “soluble fraction (log2)” value is 0.22.

Regarding “HMNKYNNIEDLKEEDFENISEKYQVPVSFVKSKLDDLINWHEKNPQKNHYKNYLSALRDWVKRDSLKIKL”, the “soluble fraction (log2)” value was 0.0178. The result for “HMNLDELGNRIREQRIKQRLKQQDIANALMLSAQAVSKWERGENAPDISVLPDLVKILGVSVDWLLTGP” reads -1.15; that for “HMNLDPHVVGHRLRDLRTRRDLTLADVAAETDISVSTLSRLESGSRRATLELLVPLARTYRVTLDELVDA”, -0.353.

Regarding “HMNLDPIKRKSEILSLFESHKNVKFNEIFFEKVNKEFTVLTFLIILELVKDNIIDFSQTQEGLIEFFTR”, the “soluble fraction (log2)” value was 0.204. Regarding “HMNLDVPGIIKRAKQALNLKRDSELAEFLGVSRATVTNWAARNSIDFRLLLDKLGNTVDYNWLLLGKGNPK”, the “soluble fraction (log2)” value is -0.188. For the sequence “HMNLDYKQFQVFNNIETLNTFTNLLSDNKIDFEVENNSKIFDPSFANNDFEKEYIVKIHPNDFEKVY”, the “soluble fraction (log2)” value was -1.32. In the case of “HMNLEIGAIIKSLRAKHKYTQEQLSAFLGVTPQAVSRWEAGNGYPDIELLPAIARFFEVSTDELLGL”, the “soluble fraction (log2)” value is -1.32. In the case of “HMNLGDLYVIMEIAGQRDDVSARLMNREGQTFLVKTGTKLKSGDVVKEITPTYIKTDHDGEEAFLYF” it was -1.17; in that of “HMNLGETIYNLRKEKKLSQGDLAEQLSVSRQSVSKWENNSAVPDLDKLVKLSTIFGVSLDELVKG”, 0.409. On to “HMNLGLTGDPSVLYSILLQRGDSSRADLQRQTGWSLSKTTLVLNQLLAQKLIVQVGAGRSTQYRVIN”, for which the “soluble fraction (log2)” value was -0.196. The result for “HMNLGNLAYESKVTKQVLNMIRPLHPEYSSDDITRAVKEILSEEGSRQRRVDEIARGALDVLMGNPR” reads at least 0.43; that for “HMNLLQAHLLRLESAALLAEVREVDRQLSRWLHPLTPQSDVAIIDERNWEAAVARLTELGVHIEEGRW”, -1.67. For “HMNLNIGNNIKNIRKSKNMTQTDFAELMGLSRSYIGDLENNRSNPSIKTLEAIARALDVPIVALIN”, the “soluble fraction (log2)” value was -0.726. In the case of “HMNLSSETLSEMEARIGQMGVVELQDRRAYLLQEQEGTQNPSRLKEIADELSAIQKALVALV” it was -0.401. In the case of “HMNLTEIGQRIRDRREELGLSQDRLAKLGGLPRVTINQLETGSIGDLGVSKLLNLLDLLGLTLDA”, the “soluble fraction (log2)” value was -0.614. Regarding “HMNLTLMDALKAAGLPVDGINLSMVNKMMEEQMPIDKTSLNQMYQLVQDNKDINVTTLVELKRLG”, the “soluble fraction (log2)” value is -0.393. In the case of “HMNLTSNDAYSRILNAIITSELRPGDTVTEIQLAQKFGFGRTPVREAIMRLENEGFIVSAERKKRVYIL” it was -0.815. As for “HMNLTSSDIQKILSYALLADNSITLNSIEESMASLKLKKMSAEQLIELLEVSSMVLRNTNNSWSIL”, the “soluble fraction (log2)” value is -1.32.

Take “HMNMENIADKIGKIYESLPEDLKLMIKYRDIDDLTYDEIAVKADLPVGTVRSRLHRAREQLLKELEKN”: the “soluble fraction (log2)” value was -0.0554. The result for “HMNMEPNWLKWAKQLAALAQNGLTYSDNPYEIERYEHIRRIAAEMMAEGFELDTKTILELFPREKG” reads -1.41; that for “HMNMFDMRKTGARISQLRRAAGLTQAELAEKLGISYQAVSSWERGSNMPDIGKLLDLARILNTTVDALLSA”, 0.309; that for “HMNMGKRFKELRKERKFTQQQLADRIGLAPSAISSYESGARYPSYDVLIKYSKIFHVTTDYLLG”, 0.148. For the sequence “HMNMKVGPVPANVVPANIKAHVSNNYSKYQIVQMMQNDKGYQVKLSNGTDLYYDKDGNILKTS”, the “soluble fraction (log2)” value was determined as 0.0948. Consider “HMNMSVGAALRRRRNELGMTLRELADEAELTSGFLSQVENDRVSPSLKSLGRIAEVLRIPLFQLLS”, for which the “soluble fraction (log2)” value was -0.659. In the case of “HMNMSVVEKVIQQISNPGRDSLIPILQAVQEEEGFISRESVIEIGKALDLPASKIYGVATFYNQFR” it was -0.543. On to “HMNMTDVLVVNQTVRGGTQITESMLSVKKVDKSSLPDNYLKASLKDEVVGKYFDLGLTSGGVLTKDNISVS”, for which the “soluble fraction (log2)” value worked out at 0.104.

Take “HMNMVSGHLQIKKGYYYVVLSYYDNRNKRHVKYVSTGLPEKGNKRKAEAALARVRSEFEPPQE”: the “soluble fraction (log2)” value amounted to 0.353.

As to “HMNNDFIVKSTDSHKVNLRSQPDTHADIIKRLDDHTIVEKLKTVRKNWYLVQLKDTTTQGYVHKSQLERV”, the “soluble fraction (log2)” value was 0.21.

On to “HMNNDFVERLRKLFGHASMAEIARRIDVPHATIRNYFQGRLPAPEVLIKLARETGVSLNWLLTGEGKMFA”, for which the “soluble fraction (log2)” value was -0.113. Take “HMNNENELSSIISKVLEENPAEKERFLNGEKKLAGFFMGKIMKATKGTADPKKAAQLLNEIL”: the “soluble fraction (log2)” value was determined as 0.271. Take “HMNNFNVVVGKAIKNSFNTRENYITINAGKVLGIKTDMGVINDKGIVGIVEKTSKDFATIQSVLNIKS”: the “soluble fraction (log2)” value came to 0.22. In the case of “HMNNGTDGLTTRLRRAILAGQYTFKERLPSERQLAEHFNTSRGTVRKVLQRLTTMNLVEQRAGSGTYVRYG” it was 0.22; in that of “HMNNIGSKIKSAKILNNLDDNQLSEITGIDKLQLRSIQDGQVNPTKMELEIISKALKLPTNYFTK”, 0.154; in that of “HMNNIIYLIANKLDVGKRLDQFITIRTEFSRQRVINLIEDGYVKLNNKIINLKKYKIKGDEKIEITIPEIR”, -1.49. As to “HMNNKVAVKSGYYFEIFNKEEIPTTLAKTKQKVKINNIQYDLYQGMSLDDERKIDDMFGDRMGYSIDDY”, the “soluble fraction (log2)” value was -1.9.

For the sequence “HMNNKVAVKSGYYFELFDKDEIPATLEKMKQKVKIDNIKYDLYQGTSLEDERKIDTMFGEKMGYSIDDYI”, the “soluble fraction (log2)” value is -0.527. The result for “HMNNLVTRREVEILGWIKEGKTTSDIAGILSLSPFTVKNHVQNILKKLGARSRSHAVAQAINLGLLH” reads -0.446. In the case of “HMNNPISMQKLRQVIRLYGQGKGTKSINSMLGVSRNTIKKYLQVYHSSGINYESFLAMSDKELSAVFLV” it was 0.226; in that of “HMNNQVTFSKFLNEVEDGRVVEVNIQGNNITGVLSDGSKFKTFSPNYPNLVEKLSEKGVSINASPL”, 0.153. The result for “HMNNTIKFSVDENNSGKRLDVYLTENINHLTRSFLKKLIEKEQVKLNKKVLTSPATKVKTKDQITINIIE” reads -0.26. Turning to “HMNNWYESSIKSLVEEYFREHGFSVVFDSSEFWDVFIEKYHKQIPSSQIALFDQVAAEARSYAFNKK”, the “soluble fraction (log2)” value is -0.545. With “HMNPETLTNGSVVKMSKANLSDELIIDMINNSPARFDLSSGALRSLEGEGVSKAVIESMKRATSG”, the “soluble fraction (log2)” value was found to be 0.0233. As for “HMNPETLTNSSVIKMSKANLSDELITDMILNSPVKFDLSAGAIKTLESEGVTPAVLESMKNAASK”, the “soluble fraction (log2)” value turned out to be 0.0677. With “HMNPFTHEEINLMSIYNAAGTREGLIAALTEMWGYLDAEETELRELADSALAKLRGITDAEYAALELE”, the “soluble fraction (log2)” value was -2.05. “HMNPGAYQVKAGEGLIGLSRRYNVPVDVLASVNNLNTTSSLRVGQTITIPTAAQVNRITQQAQ”: the “soluble fraction (log2)” value was 0.254. Regarding “HMNPGHAERGKEIVEVFLRNNGELSMREIAEKSNITITQARRRVNKLLDQGIVEATAPVQSRNRKYRIK”, the “soluble fraction (log2)” value was determined as 0.0708.

Consider “HMNPIEAQIEELKNKDQKTAYQALKHLLAISETRAEVSYYFDRFVALLQDPQSYVRTRGLLLIGA”, for which the “soluble fraction (log2)” value came to 0.0533.

Turning to “HMNPLLSAYLAEVERGLQGLTAGRRRLVLRELEAHLLDEAEARGLLTEEDMRALLMEKEPPERLAQEIAQ”, the “soluble fraction (log2)” value is -0.925. Turning to “HMNPMLEPAGEIRLSDGVLLRWQSERLPGDDTVRGPGSLYELGLYRVKVRVSAPQQGVRESSVELAGWRQV”, the “soluble fraction (log2)” value is -0.212. As for “HMNPMRYLVVPSQETETWKEYLVSKEWLERKYRIETEGDNRAIPLSNLFPKIVPIELSNLEIIEKEAFS”, the “soluble fraction (log2)” value was -1.09. As to “HMNPNEVQIPDLVNKTEDEAEQILKDLKLKLVVKSEEYNENIEKGKIISQDPPYQENYTIKEHSEISIVIS”, the “soluble fraction (log2)” value was -0.415. The result for “HMNPSRPASKEELLGLFEHLERALDAVTFFRPAEKKPVVVQTLRAMLTKASFTEQDIRTMRGVIAALEN” reads -0.986. As for “HMNPYQDSILLWKSFDTPLTNEDFMGLSKEELRIARNEIYAAYGRIFTSQDLIDYFNSKPWYQGTTPA”, the “soluble fraction (log2)” value is -0.883. Turning to “HMNQDQDLSRIKGIGPEMVDRLHAQGVETLEQIAAMQMEQLKKLDQQISGNGKAVREQWAEQAKQLLTT”, the “soluble fraction (log2)” value is -0.331. Regarding “HMNQEFRMPNAIKGVELSEENKQQLTQGEKVFLEGMTSAKGSLFDAYVYIDQEKKTLAFDFPEK”, the “soluble fraction (log2)” value was -0.792.

Take “HMNQKTQMTKQILAESLKKLMLHHSFEKITIKDITDAAGFIRPTFYNHFKDKYDLVEWIFTEEI”: the “soluble fraction (log2)” value was -0.336. For the sequence “HMNQKVRQLLSQAQAEMERKNYKQAIKLLDQALAIEPHSGELHFMKGYAWMSMGEFEKALESLYEARNYA”, the “soluble fraction (log2)” value was -0.754.

Take “HMNQPRQRKVIFELIDERNALERVLMHFAHLEKQVEKIDERKYQVTLYYDKEDETEILIRVLSFG”: the “soluble fraction (log2)” value is -1.16. “HMNQTEKSKITHNELLKAAHSLFIEQGFNHTTITDIVTRAGYSTGIFYKHYKTKTDILVELWTNYIE”: the “soluble fraction (log2)” value is -1.28. Take “HMNQWQLLSEDGAILGTRVLYHPHETEQPFTRSLSGVKIPAHVQSVTIRAGDLVHGFGGREIQMQLPPIV”: the “soluble fraction (log2)” value is 0.0124. Turning to “HMNREENIQIGRDLLERELRKQGMDLQENLRQEVLLDGAKKLGFNNTDDLLAAIGDLKVTPAMFIGKIA”, the “soluble fraction (log2)” value is -0.168.
